The values below come from the Immune Epitope Database (IEDB).

pKd: −log10 of the molar value. Some results are limits rather than exact numbers.

Some targets named below: HLA-A*03:01; HLA-A*11:01; HLA-A*31:01; HLA-A*33:01; HLA-A*68:01.
What all share (test): IEDB peptide-MHC binding, purified MHC/competitive/radioactivity; filed as Kd, often an IC50 or EC50 that approximates it; ≥ and ≤ were set here for values at or beyond the usual limits of such assays
Where [1] appears, read: source organism: Mammarenavirus lassaense.
Where [2] appears, read: source organism: Vaccinia virus WR.
Setting [3] is: source organism: Vaccinia virus Copenhagen.
Setting [4] is: source organism: Mammarenavirus whitewaterense.
Setting [5] is: source organism: SARS coronavirus Tor2.
[6] abbreviates: source organism: Dengue virus 1 Brazil/97-11/1997.
Where [7] appears, read: source organism: Mammarenavirus guanaritoense.
Where [8] appears, read: source organism: Dengue virus 1 Singapore/S275/1990.
The mark [9] stands for this setting: source organism: Dengue virus 2 Jamaica/1409/1983.
Setting [10] is: source organism: Dengue virus 4 Philippines/H241/1956.
Where [11] appears, read: source organism: Dengue virus 3 Martinique/1243/1999.
Where [12] appears, read: source organism: Dengue virus 2 Peru/IQT2913/1996.

Regarding TCQGSEDIK, the pKd with HLA-A*03:01 (setting [1]) was at most 4.11; with HLA-A*11:01 (setting [1]), 4.82; in the assay with HLA-A*31:01 (setting [1]) it was at most 4.21; with HLA-A*33:01 (setting [1]) it was at most 4.11; in the assay with HLA-A*68:01 (setting [1]), at most 4.52.
For the sequence DIVNNFITK, the pKd is at most 4.39 in the assay with HLA-A*03:01 (setting [2]); 6.00 in the assay with HLA-A*11:01 (setting [2]); at most 4.53 with HLA-A*31:01 (setting [2]); at most 4.57 in the assay with HLA-A*33:01 (setting [2]); 7.06 in the assay with HLA-A*68:01 (setting [2]).
The matching figures for NITLKIIETY: at most 4.15, 6.38, 5.92, at most 4.68 and 6.35.
DIFVSLVKK: the pKd with HLA-A*03:01 (setting [2]) is 5.00; in the assay with HLA-A*11:01 (setting [2]), 7.56; with HLA-A*31:01 (setting [2]), at most 4.11; in the assay with HLA-A*33:01 (setting [2]) it was 7.27; with HLA-A*68:01 (setting [2]) it was 9.27.
For CLLAISAVY, in that order: 6.01, 5.30, 6.43, 5.07 and 6.80.
Take QLMYALEPR: the pKd is 4.82 with HLA-A*03:01 (setting [3]); 5.61 in the assay with HLA-A*11:01 (setting [3]); 4.89 in the assay with HLA-A*31:01 (setting [3]); 4.76 in the assay with HLA-A*33:01 (setting [3]); 5.53 in the assay with HLA-A*68:01 (setting [3]).
Consider WIKDIMTSTR, for which the pKd in the assay with HLA-A*03:01 (setting [2]) was 5.66; with HLA-A*11:01 (setting [2]) it was at most 4.67; with HLA-A*31:01 (setting [2]) it was 6.52; with HLA-A*33:01 (setting [2]), 7.19; with HLA-A*68:01 (setting [2]) it was 7.64.
Regarding ACQEAVKLK, in the assay with HLA-A*33:01 (source organism: Mammarenavirus juninense), the pKd was at most 4.11.
For TMRIYCSLFK, the pKd with HLA-A*03:01 (setting [2]) was 8.93; with HLA-A*11:01 (setting [2]), 9.68; in the assay with HLA-A*31:01 (setting [2]) it was 8.75; in the assay with HLA-A*33:01 (setting [2]) it was 7.03; with HLA-A*68:01 (setting [2]), 7.57.
In the case of IVPEFAKQY, the pKd in the assay with HLA-A*03:01 (setting [2]) was at most 4.55; with HLA-A*11:01 (setting [2]), 4.93; with HLA-A*31:01 (setting [2]), at most 4.67; with HLA-A*33:01 (setting [2]), at most 4.37; with HLA-A*68:01 (setting [2]), 5.04.
For the sequence EACYIYKSGK, the pKd in the assay with HLA-A*03:01 (setting [2]) is 5.97; with HLA-A*11:01 (setting [2]), 6.00; in the assay with HLA-A*31:01 (setting [2]) it was 5.19; with HLA-A*33:01 (setting [2]) it was 4.95; in the assay with HLA-A*68:01 (setting [2]), 7.50.
The matching figures for RLLHCVTESY: 7.14, 7.40, 7.50, 5.16 and 6.22.
The matching figures for GFEARIVDK: at most 4.39, 5.04, 5.80, 4.99 and 4.79.
For RNPYENVLYK, the pKd in the assay with HLA-A*03:01 (setting [4]) was 5.64; with HLA-A*11:01 (setting [4]), 5.82; with HLA-A*31:01 (setting [4]), at most 4.54; with HLA-A*33:01 (setting [4]), at most 4.15; with HLA-A*68:01 (setting [4]) it was 5.46.
As for RAIMATIQR, the pKd with HLA-A*03:01 (setting [5]) is 5.57; with HLA-A*11:01 (setting [5]) it was 7.04; in the assay with HLA-A*31:01 (setting [5]), 7.34; in the assay with HLA-A*33:01 (setting [5]), 5.15; with HLA-A*68:01 (setting [5]), 7.14.
For the sequence DWLEKHGAER, in the assay with HLA-A*33:01 (setting [6]), the pKd was 6.90.
Consider DLIKKSDAK, for which the pKd with HLA-A*03:01 (setting [2]) is at most 4.42; with HLA-A*11:01 (setting [2]) it was at most 4.50; with HLA-A*31:01 (setting [2]), at most 4.11; in the assay with HLA-A*33:01 (setting [2]), 5.18; in the assay with HLA-A*68:01 (setting [2]) it was 5.67.
Consider KGLGHDFLR, for which the values for the pKd with HLA-A*31:01 (setting [7]), with HLA-A*33:01 (setting [7]) and in the assay with HLA-A*68:01 (setting [7]) were 9.87, at most 4.11 and at most 4.67, respectively.
For EVHTWTEQYK, the pKd with HLA-A*68:01 (setting [6]) was 7.82.
In the case of LAMGIMILK, the pKd was 7.58 in the assay with HLA-A*03:01 (setting [8]), 8.02 with HLA-A*11:01 (setting [8]) and 7.51 in the assay with HLA-A*68:01 (setting [8]).
On to KTVWFVPSIK, for which the pKd with HLA-A*03:01 (setting [9]) is 8.18; in the assay with HLA-A*11:01 (setting [9]) it was 7.23.
With MGANFRADR, the pKd with HLA-A*68:01 (setting [6]) was 7.77.
On to VSTVQQLTK, for which, in the assay with HLA-A*11:01 (setting [9]), the pKd is 6.22.
As for SLLGSALLK, the pKd is 8.46 in the assay with HLA-A*03:01 (setting [10]) and 7.67 with HLA-A*11:01 (setting [10]).
As to DENKWKSAR, the pKd in the assay with HLA-A*33:01 (setting [9]) was 6.51.
Turning to GLLLRKLTSK, in the assay with HLA-A*03:01 (setting [9]), the pKd was 7.40.
With RTLGRNKRPR, in the assay with HLA-A*31:01 (source organism: Dengue virus 3 Sri Lanka/1266/2000), the pKd is 8.17.
Regarding VYTQLCDHR, in the assay with HLA-A*33:01 (setting [11]), the pKd was 5.72.
On to ALALGMMVLK, for which the figures for the pKd with HLA-A*03:01 (setting [9]) and in the assay with HLA-A*11:01 (setting [9]) were 7.62 and 7.86, respectively.
Turning to KISVQYNLSH, in the assay with HLA-A*11:01 (source organism: Lassa virus Josiah), the pKd was 6.69.
Regarding DVIGERIKR, the pKd with HLA-A*33:01 (setting [11]) was 7.41; with HLA-A*68:01 (setting [11]) it was 7.61.
On to KSGAIKVLK, for which the pKd with HLA-A*03:01 (setting [11]) is 6.98; with HLA-A*11:01 (setting [11]) it was 6.82; with HLA-A*31:01 (setting [11]) it was 8.05.
As to QTVGPWHLGK, the pKd with HLA-A*11:01 (setting [10]) was 7.42.
With RMLINRFTMR, the pKd with HLA-A*03:01 (setting [12]) is 7.06; with HLA-A*31:01 (setting [12]), 7.84; with HLA-A*33:01 (setting [12]), 6.79.
For the sequence NKKPRICTR, the pKd with HLA-A*33:01 (setting [6]) is 5.53.
Consider ETKGVERLK, for which the pKd in the assay with HLA-A*68:01 (setting [11]) is 7.48.
Regarding TLITGNMSFR, the pKd with HLA-A*33:01 (setting [9]) was 6.54; with HLA-A*68:01 (setting [9]), 7.91.
